The values that follow come from patent publication US20160083712A1.

The assay concerns the target CSN5 WT, soluble MPN domain construct of Example 2 (Homo sapiens). Put plainly: ITC. For orientation: Isothermal titration calorimetry measures the heat released or taken up as one component is titrated into another.

Sequence of CSN5 WT, soluble MPN domain construct of Example 2 (Homo sapiens) (O35864 1-257 limits assumed): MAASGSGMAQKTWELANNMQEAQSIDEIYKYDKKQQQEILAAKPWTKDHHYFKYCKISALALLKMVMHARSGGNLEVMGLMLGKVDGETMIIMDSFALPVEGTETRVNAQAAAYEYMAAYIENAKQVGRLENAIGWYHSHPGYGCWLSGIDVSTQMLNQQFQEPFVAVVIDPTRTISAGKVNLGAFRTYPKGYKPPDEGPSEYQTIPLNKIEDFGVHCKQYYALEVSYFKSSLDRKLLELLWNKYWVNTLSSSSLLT

As for “CSN6, soluble MPN domain construct of Example 2 (from UniProt Q7L5N1 31-211)”, the Kd lay within 1000 to 5000 nM.

Broadly, the Kd is the free concentration of one partner at which half of the binding sites on the other are occupied at equilibrium, for simple one-to-one binding. A low value points to tighter binding.
